This data set is described as follows: total protein half-life in vivo (active degradation + dilution); higher = more stable protein.
Where [1] appears, read: E. coli NCM3722 delta-clpP delta-lon delta-hslV, growth: N-lim chemostat, doubling time 6 h.
The mark [2] stands for this setting: E. coli NCM3722 delta-clpP, growth: N-lim chemostat, doubling time 6 h.
The mark [3] stands for this setting: E. coli NCM3722 delta-hslV, growth: N-lim chemostat, doubling time 6 h.
The mark [4] stands for this setting: E. coli NCM3722 delta-lon, growth: N-lim chemostat, doubling time 6 h.
[5] abbreviates: E. coli NCM3722 delta-smpB, growth: N-lim chemostat, doubling time 6 h.
The mark [6] stands for this setting: wild type E. coli NCM3722, growth: C-lim chemostat, doubling time 3 h.
Where [7] appears, read: wild type E. coli NCM3722, growth: C-lim chemostat, doubling time 6 h.
[8] abbreviates: wild type E. coli NCM3722, growth: C-lim chemostat, doubling time 12 h.
Where [9] appears, read: wild type E. coli NCM3722, growth: N-lim chemostat, doubling time 6 h.
Where [10] appears, read: wild type E. coli NCM3722, growth: N-lim chemostat, doubling time 12 h.
Where [11] appears, read: wild type E. coli NCM3722, growth: P-lim chemostat, doubling time 6 h.
Setting [12] is: wild type E. coli NCM3722, growth: P-lim chemostat, doubling time 12 h.

± gives the standard deviation of the averaged measurements.

“MNEQYSALRSNVSMLGKVLGETIKDALGEHILERVETIRKLSKSSRAGNDANRQELLTTLQNLSNDELLPVARAFSQFLNLANTAEQYHSISPKGEAASNPEVIARTLRKLKNQPELSEDTIKKAVESLSLELVLTAHPTEITRRTLIHKMVEVNACLKQLDNKDIADYEHNQLMRRLRQLIAQSWHTDEIRKLRPSPVDEAKWGFAVVENSLWQGVPNYLRELNEQLEENLGYKLPVEFVPVRFTSWMGGDRDGNPNVTADITRHVLLLSRWKATDLFLKDIQVLVSELSMVEATPELLALVGEEGAAEPYRYLMKNLRSRLMATQAWLEARLKGEELPKPEGLLTQNEELWEPLYACYQSLQACGMGIIANGDLLDTLRRVKCFGVPLVRIDIRQESTRHTEALGELTRYLGIGDYESWSEADKQAFLIRELNSKRPLLPRNWQPSAETREVLDTCQVIAEAPQGSIAAYVISMAKTPSDVLAVHLLLKEAGIGFAMPVAPLFETLDDLNNANDVMTQLLNIDWYRGLIQGKQMVMIGYSDSAKDAGVMAASWAQYQAQDALIKTCEKAGIELTLFHGRGGSIGRGGAPAHAALLSQPPGSLKGGLRVTEQGEMIRFKYGLPEITVSSLSLYTGAILEANLLPPPEPKESWRRIMDELSVISCDVYRGYVRENKDFVPYFRSATPEQELGKLPLGSRPAKRRPTGGVESLRAIPWIFAWTQNRLMLPAWLGAGTALQKVVEDGKQSELEAMCRDWPFFSTRLGMLEMVFAKADLWLAEYYDQRLVDKALWPLGKELRNLQEEDIKVVLAIANDSHLMADLPWIAESIQLRNIYTDPLNVLQAELLHRSRQAEKEGQEPDPRVEQALMVTIAGIAAGMRNTG”: the “total protein half-life in vivo” value reads like this: under setting [1], 5.93 ± 0.19 h; under setting [2], 5.73 ± 0.32 h; under setting [3], 5.54 ± 0.18 h; under setting [4], 5.364 ± 0.041 h; under setting [5], 5.04 ± 0.057 h; under setting [6], 2.97 ± 0.16 h. Further, the “total protein half-life in vivo” value was found to be 5.78 ± 0.22 h under setting [7]; 10.98 ± 0.089 h under setting [8]; 5.22 ± 0.11 h under setting [9]; 10.6 ± 0.79 h under setting [10]; 5.97 ± 0.078 h under setting [11]; 11.8 ± 0.8 h under setting [12].

For “MLQIVGALILLIAGFAILRLLFRALISTASALAGLILLCLFGPALLAGYITERITRLFHIRWLAGVFLTIAGMIISFMWGLDGKHIALEAHTFDSVKFILTTALAGGLLAVPLQIKNIQQNGITPEDISKEINGYYCCFYTAFFLMACSACAPLIALQYDISPSLMWWGGLLYWLAALVTLLWAASQIQALKKLTCAISQTLEEQPVLNSKSWLTSLQNDYSLPDSLTERIWLTLISQRISRGELREFELADGNWLLNNAWYERNMAGFNEQLKENLSFTPDELKTLFRNRLNLSPEANDDFLDRCLDGGDWYPFSEGRRFVSFHHVDELRICASCGLTEVHHAPENHKPDPEWYCSSLCRETETLCQEIYERPYNSFISDATANGLILMKLPETWSTNEKMFASGGQGHGFAAERGNHIVDRVRLKNARILGDNNARNGADRLVSGTEIQTKYCSTAARSVGAAFDGQNGQYRYMGNNGPMQLEVPRDQYAGAVETMRNKIREGKVEER”, the “total protein half-life in vivo” value is 0.668 h under setting [2], 0.674 h under setting [10] and 2.58 ± 0.79 h under setting [12].

Turning to “MSHTIRDKQKLKARASKIQGQVVALKKMLDEPHECAAVLQQIAAIRGAVNGLMREVIKGHLTEHIVHQGDELKREEDLDVVLKVLDSYIK”, the “total protein half-life in vivo” value is, setting by setting: under setting [1], 7.38 ± 0.4 h; under setting [2], 7.02 ± 0.26 h; under setting [4], 6.29 ± 0.15 h; under setting [6], greater than 4 h; under setting [7], 7.3 ± 0.65 h; under setting [8], 10.8 h. The “total protein half-life in vivo” value is, setting by setting: under setting [9], 5.53 ± 0.39 h; under setting [10], 11.2 h; under setting [11], 4.14 ± 1.8 h; under setting [12], 11.9 ± 0.86 h.

On to “MAMFGFPHWQLKSTSTESGVVAPDERLPFAQTAVMGVQHAVAMFGATVLMPILMGLDPNLSILMSGIGTLLFFFITGGRVPSYLGSSAAFVGVVIAATGFNGQGINPNISIALGGIIACGLVYTVIGLVVMKIGTRWIERLMPPVVTGAVVMAIGLNLAPIAVKSVSASAFDSWMAVMTVLCIGLVAVFTRGMIQRLLILVGLIVACLLYGVMTNVLGLGKAVDFTLVSHAAWFGLPHFSTPAFNGQAMMLIAPVAVILVAENLGHLKAVAGMTGRNMDPYMGRAFVGDGLATMLSGSVGGSGVTTYAENIGVMAVTKVYSTLVFVAAAVIAMLLGFSPKFGALIHTIPAAVIGGASIVVFGLIAVAGARIWVQNRVDLSQNGNLIMVAVTLVLGAGDFALTLGGFTLGGIGTATFGAILLNALLSRKLVDVPPPEVVHQEP”, for which the “total protein half-life in vivo” value runs as follows: under setting [2], 4.84 ± 1.8 h; under setting [3], 3.33 ± 1.9 h; under setting [4], greater than 8 h; under setting [5], 3.66 ± 0.6 h; under setting [9], 3.82 h; under setting [10], 5.58 ± 0.86 h.

As to “MQEIMQFVGRHPILSIAWIALLVAVLVTTFKSLTSKVKVITRGEATRLINKEDAVVVDLRQRDDFRKGHIAGSINLLPSEIKANNVGELEKHKDKPVIVVDGSGMQCQEPANALTKAGFAQVFVLKEGVAGWAGENLPLVRGK [P0AG27]”, the “total protein half-life in vivo” value was determined as 5.92 ± 0.38 h under setting [1]; 6.89 ± 0.76 h under setting [2]; 6.06 ± 0.078 h under setting [3]; 5.77 ± 1 h under setting [4]; 5.7 ± 0.28 h under setting [5]; 3.71 ± 0.18 h under setting [6]. Besides, the “total protein half-life in vivo” value under setting [8] is 10.9 ± 1.4 h, the “total protein half-life in vivo” value under setting [9] was found to be 5.96 ± 0.49 h and the “total protein half-life in vivo” value under setting [11] was determined as 6.47 ± 0.095 h.

As for “MRVLLFLLLSLFMLPAFSADNLLRWHDAQHFTVQASTPLKAKRAWKLCALYPSLKDSYWLSLNYGMQEAARRYGVDLKVLEAGGYSQLATQQAQIDQCKQWGAEAILLGSSTTSFPDLQKQVASLPVIELVNAIDAPQVKSRVGVPWFQMGYQPGRYLVQWAHGKPLNVLLMPGPDNAGGSKEMVEGFRAAIAGSPVRIVDIALGDNDIEIQRNLLQEMLERHPEIDVVAGTAIAAEAAMGEGRNLKTPLTVVSFYLSHQVYRGLKRGRVIMAASDQMVWQGELAVEQAIRQLQGQSVSDNVSPPILVLTPKNADREHIRRSLSPGGFRPVYFYQHTSAAKK”, the “total protein half-life in vivo” value by setting is: under setting [1], 6.15 ± 0.33 h; under setting [2], 5.43 ± 0.75 h; under setting [3], 3.15 ± 0.62 h; under setting [4], 4.15 ± 1.5 h; under setting [5], 3.08 h; under setting [8], 4.04 h. Also, the “total protein half-life in vivo” value under setting [9] worked out at 3.87 ± 1.8 h, the “total protein half-life in vivo” value under setting [10] worked out at 9.91 ± 3.2 h, the “total protein half-life in vivo” value under setting [11] came out at 4.02 h and the “total protein half-life in vivo” value under setting [12] is 6.77 ± 2.5 h.

Take “MKQQIQLRRREVDETADLPAELPPLLRRLYASRGVRSAQELERSVKGMLPWQQLSGVEKAVEILYNAFREGTRIIVVGDFDADGATSTALSVLAMRSLGCSNIDYLVPNRFEDGYGLSPEVVDQAHARGAQLIVTVDNGISSHAGVEHARSLGIPVIVTDHHLPGDTLPAAEAIINPNLRDCNFPSKSLAGVGVAFYLMLALRTFLRDQGWFDERNIAIPNLAELLDLVALGTVADVVPLDANNRILTWQGMSRIRAGKCRPGIKALLEVANRDAQKLAASDLGFALGPRLNAAGRLDDMSVGVALLLCDNIGEARVLANELDALNQTRKEIEQGMQIEALTLCEKLERSRDTLPGGLAMYHPEWHQGVVGILASRIKERFHRPVIAFAPAGDGTLKGSGRSIQGLHMRDALERLDTLYPGMMLKFGGHAMAAGLSLEEDKFKLFQQRFGELVTEWLDPSLLQGEVVSDGPLSPAEMTMEVAQLLRDAGPWGQMFPEPLFDGHFRLLQQRLVGERHLKVMVEPVGGGPLLDGIAFNVDTALWPDNGVREVQLAYKLDINEFRGNRSLQIIIDNIWPI”: the “total protein half-life in vivo” value worked out at 4.22 ± 0.25 h under setting [1]; 3.87 ± 1.1 h under setting [2]; 2.23 ± 0.075 h under setting [3]; 2.74 ± 0.093 h under setting [4]; 2.07 ± 0.028 h under setting [5]; 2.11 ± 0.042 h under setting [6]. In addition, the “total protein half-life in vivo” value is, setting by setting: under setting [7], 3.66 ± 0.65 h; under setting [8], 4.42 ± 0.24 h; under setting [9], 2.25 ± 0.044 h; under setting [10], 3.5 ± 0.59 h; under setting [11], 2.33 ± 0.37 h; under setting [12], 3.89 ± 0.38 h.

For “MIVLPRRLSDEVADRVRALIDEKNLEAGMKLPAERQLAMQLGVSRNSLREALAKLVSEGVLLSRRGGGTFIRWRHDTWSEQNIVQPLKTLMADDPDYSFDILEARYAIEASTAWHAAMRATPGDKEKIQLCFEATLSEDPDIASQADVRFHLAIAEASHNIVLLQTMRGFFDVLQSSVKHSRQRMYLVPPVFSQLTEQHQAVIDAIFAGDADGARKAMMAHLSFVHTTMKRFDEDQARHARITRLPGEHNEHSREKNA [P0ACL7]”, the “total protein half-life in vivo” value is, setting by setting: under setting [1], 5.57 h; under setting [2], 2.72 h; under setting [5], 2.04 h; under setting [6], 1.28 h; under setting [7], 2.86 ± 0.55 h; under setting [8], 2.72 h. Besides, under setting [10], the “total protein half-life in vivo” value worked out at 2.87 h.

Turning to “MSQALKNLLTLLNLEKIEEGLFRGQSEDLGLRQVFGGQVVGQALYAAKETVPEERLVHSFHSYFLRPGDSKKPIIYDVETLRDGNSFSARRVAAIQNGKPIFYMTASFQAPEAGFEHQKTMPSAPAPDGLPSETQIAQSLAHLLPPVLKDKFICDRPLEVRPVEFHNPLKGHVAEPHRQVWIRANGSVPDDLRVHQYLLGYASDLNFLPVALQPHGIGFLEPGIQIATIDHSMWFHRPFNLNEWLLYSVESTSASSARGFVRGEFYTQDGVLVASTVQEGVMRNHN [P0AGG2]”, the “total protein half-life in vivo” value under setting [1] stood at 5.35 ± 0.059 h; the “total protein half-life in vivo” value under setting [2] was 5.17 ± 0.18 h; the “total protein half-life in vivo” value under setting [3] amounted to 4.986 ± 0.04 h; the “total protein half-life in vivo” value under setting [4] worked out at 5.37 ± 0.47 h; the “total protein half-life in vivo” value under setting [5] was 5.17 ± 0.67 h; the “total protein half-life in vivo” value under setting [7] came to 6.42 ± 0.37 h. Besides, the “total protein half-life in vivo” value reads like this: under setting [8], 10.69 ± 0.082 h; under setting [9], 5.04 ± 0.13 h; under setting [10], 8.59 ± 0.29 h; under setting [11], 5.922 ± 0.027 h; under setting [12], 13.018 ± 0.0091 h.

For “MMSQPAKVLLLYAHPESQDSVANRVLLKPATQLSNVTVHDLYAHYPDFFIDIPREQALLREHEVIVFQHPLYTYSCPALLKEWLDRVLSRGFASGPGGNQLAGKYWRSVITTGEPESAYRYDALNRYPMSDVLRPFELAAGMCRMHWLSPIIIYWARRQSAQELASHARAYGDWLANPLSPGGR [P0A756]”, the “total protein half-life in vivo” value runs as follows: under setting [1], 5.94 ± 0.44 h; under setting [2], 5.15 ± 0.59 h; under setting [3], 5.89 ± 0.62 h; under setting [4], 5.99 ± 0.26 h; under setting [5], 5.51 ± 0.33 h; under setting [6], 2.94 ± 0.079 h. Also, the “total protein half-life in vivo” value was 5.7 ± 1.1 h under setting [7]; 10.6 ± 2.5 h under setting [8]; 5.63 ± 0.52 h under setting [9]; 10.74 ± 0.04 h under setting [10]; 5.239 ± 0.0081 h under setting [11]; 10.6 ± 0.47 h under setting [12].
